Measured values published in patent US6949624.

How the values were obtained:
[1] = target: AML1/ETO chimeric fusion protein (UniProt Q01196); assay: cell-based or functional assay
[2] = target: human nuclear receptor co-repressor (HuN-CoR), 2,440 amino-acid polypeptide (human) (UniProt O75376); assay: cell-based or functional assay
Sequence of UniProt O75376 (O75376 other isoform, or with tags, fused parts or gaps limits assumed): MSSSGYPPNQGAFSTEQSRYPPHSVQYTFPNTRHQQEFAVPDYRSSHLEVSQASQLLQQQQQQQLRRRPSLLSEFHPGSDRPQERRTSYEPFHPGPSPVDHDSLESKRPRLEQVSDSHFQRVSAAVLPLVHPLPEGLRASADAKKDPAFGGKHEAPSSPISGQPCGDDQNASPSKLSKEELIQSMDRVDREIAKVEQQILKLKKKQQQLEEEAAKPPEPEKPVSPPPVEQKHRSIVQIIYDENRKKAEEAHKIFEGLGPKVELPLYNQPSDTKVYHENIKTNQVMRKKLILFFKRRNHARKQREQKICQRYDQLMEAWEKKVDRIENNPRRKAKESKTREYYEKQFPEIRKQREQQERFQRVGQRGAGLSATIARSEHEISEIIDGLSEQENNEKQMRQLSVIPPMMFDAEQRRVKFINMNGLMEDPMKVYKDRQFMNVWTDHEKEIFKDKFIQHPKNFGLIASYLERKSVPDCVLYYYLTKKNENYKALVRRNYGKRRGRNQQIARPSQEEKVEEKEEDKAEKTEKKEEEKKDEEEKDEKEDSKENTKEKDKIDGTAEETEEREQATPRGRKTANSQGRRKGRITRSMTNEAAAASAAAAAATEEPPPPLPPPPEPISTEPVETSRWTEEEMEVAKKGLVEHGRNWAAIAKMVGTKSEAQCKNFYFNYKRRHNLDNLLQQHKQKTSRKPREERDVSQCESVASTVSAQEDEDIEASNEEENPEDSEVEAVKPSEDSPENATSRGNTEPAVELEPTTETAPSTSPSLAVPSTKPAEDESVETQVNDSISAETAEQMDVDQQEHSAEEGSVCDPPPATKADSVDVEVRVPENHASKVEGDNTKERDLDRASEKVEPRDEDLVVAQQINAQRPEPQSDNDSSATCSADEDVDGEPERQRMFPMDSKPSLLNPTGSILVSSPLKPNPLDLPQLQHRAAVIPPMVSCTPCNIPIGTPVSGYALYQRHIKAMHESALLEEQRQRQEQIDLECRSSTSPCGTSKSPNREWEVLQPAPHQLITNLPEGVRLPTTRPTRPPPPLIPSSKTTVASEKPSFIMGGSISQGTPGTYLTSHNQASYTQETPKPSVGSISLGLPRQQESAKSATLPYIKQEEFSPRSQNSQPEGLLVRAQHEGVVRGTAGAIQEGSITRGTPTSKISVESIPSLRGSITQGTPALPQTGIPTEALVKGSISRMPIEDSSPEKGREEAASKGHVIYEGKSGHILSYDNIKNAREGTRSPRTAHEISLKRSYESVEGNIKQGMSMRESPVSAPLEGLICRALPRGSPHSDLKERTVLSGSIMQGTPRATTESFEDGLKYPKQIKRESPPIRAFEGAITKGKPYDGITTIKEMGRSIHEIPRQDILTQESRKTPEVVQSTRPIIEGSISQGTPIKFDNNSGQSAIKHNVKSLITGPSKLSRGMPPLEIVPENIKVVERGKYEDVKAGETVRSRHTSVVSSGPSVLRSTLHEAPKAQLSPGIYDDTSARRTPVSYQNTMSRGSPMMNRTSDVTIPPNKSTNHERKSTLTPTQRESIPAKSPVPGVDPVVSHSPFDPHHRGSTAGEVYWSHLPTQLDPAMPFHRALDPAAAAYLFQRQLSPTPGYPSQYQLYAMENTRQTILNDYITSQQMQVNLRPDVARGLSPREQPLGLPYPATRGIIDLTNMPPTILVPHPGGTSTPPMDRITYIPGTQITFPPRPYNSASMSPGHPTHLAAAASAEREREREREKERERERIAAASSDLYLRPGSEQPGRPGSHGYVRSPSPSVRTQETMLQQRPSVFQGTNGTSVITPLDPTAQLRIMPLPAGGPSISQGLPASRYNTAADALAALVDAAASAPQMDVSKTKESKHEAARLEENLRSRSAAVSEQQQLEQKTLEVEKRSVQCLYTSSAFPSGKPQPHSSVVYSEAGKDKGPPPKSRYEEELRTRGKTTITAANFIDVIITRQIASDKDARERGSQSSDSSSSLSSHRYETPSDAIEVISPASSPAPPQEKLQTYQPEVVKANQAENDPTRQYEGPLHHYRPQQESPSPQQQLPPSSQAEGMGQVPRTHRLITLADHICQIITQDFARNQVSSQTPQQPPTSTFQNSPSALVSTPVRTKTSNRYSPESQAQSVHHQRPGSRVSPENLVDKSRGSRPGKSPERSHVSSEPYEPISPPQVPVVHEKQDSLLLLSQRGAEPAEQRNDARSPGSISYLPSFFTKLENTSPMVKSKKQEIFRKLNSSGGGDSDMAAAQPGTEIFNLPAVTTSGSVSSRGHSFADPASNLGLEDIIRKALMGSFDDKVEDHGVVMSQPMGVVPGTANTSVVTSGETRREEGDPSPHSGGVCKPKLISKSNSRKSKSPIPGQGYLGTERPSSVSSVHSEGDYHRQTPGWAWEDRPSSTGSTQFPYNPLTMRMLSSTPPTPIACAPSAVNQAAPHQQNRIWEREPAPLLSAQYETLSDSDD

Sequence of UniProt Q01196 (Q01196 other isoform, or with tags, fused parts or gaps mutant limits assumed): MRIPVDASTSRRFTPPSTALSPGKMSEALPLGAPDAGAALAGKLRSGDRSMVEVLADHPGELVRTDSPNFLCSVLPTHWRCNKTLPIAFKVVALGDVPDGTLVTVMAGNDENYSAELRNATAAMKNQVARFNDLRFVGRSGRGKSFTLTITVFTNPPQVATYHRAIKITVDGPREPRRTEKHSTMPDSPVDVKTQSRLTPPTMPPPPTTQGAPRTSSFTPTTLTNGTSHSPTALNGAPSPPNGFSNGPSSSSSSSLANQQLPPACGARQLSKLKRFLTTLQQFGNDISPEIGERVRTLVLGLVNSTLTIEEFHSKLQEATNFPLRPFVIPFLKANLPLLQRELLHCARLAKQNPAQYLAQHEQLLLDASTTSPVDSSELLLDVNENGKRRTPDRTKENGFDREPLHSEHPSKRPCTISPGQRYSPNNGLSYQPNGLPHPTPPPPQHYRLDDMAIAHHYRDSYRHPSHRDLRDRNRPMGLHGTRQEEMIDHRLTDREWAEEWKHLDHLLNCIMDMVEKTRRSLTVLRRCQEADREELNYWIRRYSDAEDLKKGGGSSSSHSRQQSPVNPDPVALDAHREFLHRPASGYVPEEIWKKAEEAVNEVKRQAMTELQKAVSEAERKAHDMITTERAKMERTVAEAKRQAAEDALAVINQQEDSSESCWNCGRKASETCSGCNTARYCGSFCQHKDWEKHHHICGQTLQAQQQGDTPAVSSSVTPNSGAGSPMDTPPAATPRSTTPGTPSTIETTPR

Row | transduced Kasumi-1 cells positive for CD13 expression (flow cytometry) [1] [%] | transduced Kasumi-1 cells positive for annexin staining (flow cytometry) [1] [%] | transduced Kasumi-1 cells positive for CD13 expression (flow cytometry) [2] [%] | transduced Kasumi-1 cells positive for annexin staining (flow cytometry) [2] [%] | Substance
1 | 87 | 97 | – | – | ETO-interacting domain of N-CoR (NCoREID) fused with enhanced green fluorescent protein
2 | – | – | 89 | 97 | zinc-finger domains of ETO (ETOZn) fused with enhanced green fluorescent protein (from UniProt Q06455 510-556)
